Measured values as given in patent US20120014876A1 (ACADEMISCH ZIEKENHUIS MAASTRICHT, published 2012).
Bridges are numbered along the chain shown (N, C = ends). Where no end group is shown, it is not given here. rhodamine = not defined here; alkyl = not defined here

B1: Peptide UM206 (peptide)
peptide: Ac-CNKTSEGMDGCEL-NH2
modifications: cysteine pairing not given here
notes: Linear form, no disulfide bridge between the two cysteines; also called antagonist UM206
B2: UM206 (C = C-alkyl) (peptide)
peptide: C(alkyl)NKTSEGMDGC(alkyl)EL-NH2
modifications: not fully specified (N-terminus); reading uncertain; also: alkyl group not given here
B3: rhodamine-labeled UM206 (peptide)
peptide: Ac-CNK(rhodamine)TSEGMDGCEL-NH2
modifications: cysteine pairing not given here; reading uncertain
notes: UM206 with rhodamine on Lys3; end groups as UM206 (Ac-, -NH2) not restated; also called UM206-rhodamine; UM206-Rhodamine
B4: Wnt3a (ligand)
chain: SYPIWWSLAVGPQYSSLGSQPILCASIPGLVPKQLRFCRNYVEIMPSVAEGIKIGIQECQHQFRGRRWNCTTVHDSLAIFGPVLDKATRESAFVHAIASAGVAFAVTRSCAEGTAAICGCSSRHQGSPGKGWKWGGCSEDIEFGGMVSREFADARENRPDARSAMNRHNNEAGRQAIASHMHLKCKCHGLSGSCEVKTCWWSQPDFRAIGDFLKDKYDSASEMVVEKHRESRGWVETLRPRYTYFKVPTERDLVYYEASPNFCEPNPETGSFGTRDRTCNVSSHGIDGCDLLCCGRGHNARAERRREKCRCVFHWCCYVSCQECTRVYDVHTCK

molecular target: T1, rat frizzled-2 receptor (rat, UniProt Q08464 29-570); test: cell-based or functional assay
T1 sequence (Q08464 29-570): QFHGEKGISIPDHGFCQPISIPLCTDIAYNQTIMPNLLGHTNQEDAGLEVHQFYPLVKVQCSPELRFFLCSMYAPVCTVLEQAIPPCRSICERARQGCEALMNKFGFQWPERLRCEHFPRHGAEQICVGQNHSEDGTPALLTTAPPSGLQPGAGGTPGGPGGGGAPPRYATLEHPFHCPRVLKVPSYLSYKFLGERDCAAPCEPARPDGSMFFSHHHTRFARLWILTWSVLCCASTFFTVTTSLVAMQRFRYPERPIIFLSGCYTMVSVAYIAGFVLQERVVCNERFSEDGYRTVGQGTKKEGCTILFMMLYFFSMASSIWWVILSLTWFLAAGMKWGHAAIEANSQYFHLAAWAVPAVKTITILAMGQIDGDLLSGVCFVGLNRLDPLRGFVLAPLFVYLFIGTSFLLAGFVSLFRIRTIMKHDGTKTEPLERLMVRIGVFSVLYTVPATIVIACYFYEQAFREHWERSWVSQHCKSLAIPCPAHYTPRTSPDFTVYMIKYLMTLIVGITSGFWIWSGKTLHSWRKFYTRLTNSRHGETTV

Row | Binder | % of inhibition of Wnt3a-induced luciferase activity, peptide 1.10^-9 M [%]
1 | ANKTSEGMDGCEL [UM206 (1 C = A)] | 82.6
2 | SNKTSEGMDGSEL [UM206 (C = S)] | 17
3 | B1 | 75.1
4 | ANKTSEGMDGAEL [UM206 (C = A)] | 8.39
5 | CNKTSEGMDGC-NH2 (cysteine pairing not given here) [UM206 - (deletion of the C-terminal Glutamic acid and Leucine)] | 61.2
6 | CNKTSEGMDACEL-NH2 (cysteine pairing not given here) [UM206 (10 G = A)] | 83.3
7 | CNKTSEAMDGCEL-NH2 (cysteine pairing not given here) [UM206 (7 G = A)] | 63.1
8 | CNVSSHGIDGCDL-NH2 (cysteine pairing not given here) [peptide CNVSSHGIDGCDL (SEQ ID NO:18)] | 62.4
9 | CNATSEGMDGCEL-NH2 (cysteine pairing not given here) [UM206 (3 K = A)] | 84.9
10 | CNKTSAGMDGCEL-NH2 (cysteine pairing not given here) [UM206 (6 E = A)] | 84.7
11 | CNKTSEGMDGCAA-NH2 (cysteine pairing not given here) [UM206 (12-13 EL = AA)] | 74.3
12 | CNKTSEGMDGCAL-NH2 (cysteine pairing not given here) [UM206 (12 E = A)] | 85.5
13 | CNKTSEGMAGCEL-NH2 (cysteine pairing not given here) [UM206 (9 D = A)] | 60.5
14 | B2 | 12.4
15 | CAKTSEGMDGCEL-NH2 (cysteine pairing not given here) [UM206 (2 N = A)] | 79.5
16 | CNKTSEGMDGAEL [UM206 (11 C = A)] | 84.9
17 | CNKASEGMDGCEL-NH2 (cysteine pairing not given here) [UM206 (4 T = A)] | 59.4
18 | CNKTSEGADGCEL-NH2 (cysteine pairing not given here) [UM206 (8 M = A)] | 85
19 | CNKASEAMAGCEL-NH2 (cysteine pairing not given here) [UM206 (4 T = A, 7 G = A, 9 D = A)] | 17.5
20 | CNKTAEGMDGCEL-NH2 (cysteine pairing not given here) [UM206 (5 S = A)] | 87.3
21 | CNKTSEGMDGCEA-NH2 (cysteine pairing not given here) [UM206 (13 L = A)] | 86.5

molecular target: T2, rat frizzled-1 receptor (rat, UniProt Q08463 69-641); test: cell-based or functional assay
T2 sequence (Q08463 69-641): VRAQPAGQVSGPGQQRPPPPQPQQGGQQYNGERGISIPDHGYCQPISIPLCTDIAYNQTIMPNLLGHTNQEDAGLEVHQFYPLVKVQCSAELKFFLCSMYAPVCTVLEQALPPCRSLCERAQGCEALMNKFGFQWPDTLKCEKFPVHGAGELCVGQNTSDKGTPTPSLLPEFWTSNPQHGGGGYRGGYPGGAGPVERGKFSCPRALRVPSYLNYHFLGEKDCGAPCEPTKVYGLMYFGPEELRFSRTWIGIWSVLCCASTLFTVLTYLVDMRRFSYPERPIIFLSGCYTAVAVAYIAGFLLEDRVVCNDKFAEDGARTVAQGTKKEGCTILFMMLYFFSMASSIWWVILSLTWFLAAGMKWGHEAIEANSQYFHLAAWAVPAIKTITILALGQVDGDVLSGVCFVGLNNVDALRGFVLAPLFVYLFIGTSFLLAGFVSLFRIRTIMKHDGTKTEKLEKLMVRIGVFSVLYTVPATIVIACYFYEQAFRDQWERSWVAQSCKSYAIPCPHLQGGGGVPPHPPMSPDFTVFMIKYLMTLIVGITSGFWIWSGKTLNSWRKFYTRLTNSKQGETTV

Row | Binder | % of inhibition of Wnt3a-induced luciferase activity, peptide 1.10^-9 M [%]
22 | ANKTSEGMDGCEL [UM206 (1 C = A)] | 70.8
23 | SNKTSEGMDGSEL [UM206 (C = S)] | 0
24 | B1 | 72.2
25 | ANKTSEGMDGAEL [UM206 (C = A)] | 0
26 | CNKTSEGMDGC-NH2 (cysteine pairing not given here) [UM206 - (deletion of the C-terminal Glutamic acid and Leucine)] | 18
27 | CNKTSEGMDACEL-NH2 (cysteine pairing not given here) [UM206 (10 G = A)] | 69.9
28 | CNKTSEAMDGCEL-NH2 (cysteine pairing not given here) [UM206 (7 G = A)] | 52.6
29 | CNVSSHGIDGCDL-NH2 (cysteine pairing not given here) [peptide CNVSSHGIDGCDL (SEQ ID NO:18)] | 45.3
30 | CNATSEGMDGCEL-NH2 (cysteine pairing not given here) [UM206 (3 K = A)] | 70.8
31 | CNKTSAGMDGCEL-NH2 (cysteine pairing not given here) [UM206 (6 E = A)] | 70.8
32 | CNKTSEGMDGCAA-NH2 (cysteine pairing not given here) [UM206 (12-13 EL = AA)] | 66.8
33 | CNKTSEGMDGCAL-NH2 (cysteine pairing not given here) [UM206 (12 E = A)] | 65.9
34 | CNKTSEGMAGCEL-NH2 (cysteine pairing not given here) [UM206 (9 D = A)] | 40.5
35 | B2 | 1
36 | CAKTSEGMDGCEL-NH2 (cysteine pairing not given here) [UM206 (2 N = A)] | 68
37 | CNKTSEGMDGAEL [UM206 (11 C = A)] | 67.2
38 | CNKASEGMDGCEL-NH2 (cysteine pairing not given here) [UM206 (4 T = A)] | 28.1
39 | CNKTSEGADGCEL-NH2 (cysteine pairing not given here) [UM206 (8 M = A)] | 67.6
40 | CNKASEAMAGCEL-NH2 (cysteine pairing not given here) [UM206 (4 T = A, 7 G = A, 9 D = A)] | 11.2
41 | CNKTAEGMDGCEL-NH2 (cysteine pairing not given here) [UM206 (5 S = A)] | 74.3
42 | CNKTSEGMDGCEA-NH2 (cysteine pairing not given here) [UM206 (13 L = A)] | 65.9

molecular target: T3, mouse Fzd-1 (mouse, UniProt O70421 69-642); test: fluorescence imaging of small intestine and kidney sections
T3 construct: whole, on cells; also called mouse frizzled-1
T3 sequence (O70421 69-642): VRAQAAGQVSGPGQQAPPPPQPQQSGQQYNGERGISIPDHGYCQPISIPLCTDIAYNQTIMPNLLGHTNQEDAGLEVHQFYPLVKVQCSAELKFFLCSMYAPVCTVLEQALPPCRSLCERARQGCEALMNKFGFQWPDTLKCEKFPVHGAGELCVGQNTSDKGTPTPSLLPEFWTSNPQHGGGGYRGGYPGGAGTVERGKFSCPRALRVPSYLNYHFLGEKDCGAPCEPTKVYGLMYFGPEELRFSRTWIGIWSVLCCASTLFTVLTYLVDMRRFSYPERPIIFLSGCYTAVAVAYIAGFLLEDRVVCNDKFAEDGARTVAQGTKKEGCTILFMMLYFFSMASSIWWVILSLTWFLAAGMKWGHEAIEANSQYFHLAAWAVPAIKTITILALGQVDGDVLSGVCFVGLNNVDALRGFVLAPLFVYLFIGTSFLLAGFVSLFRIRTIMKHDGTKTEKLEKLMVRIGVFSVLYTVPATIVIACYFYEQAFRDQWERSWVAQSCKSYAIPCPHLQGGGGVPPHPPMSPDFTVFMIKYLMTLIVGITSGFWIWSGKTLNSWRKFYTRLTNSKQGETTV

Row | Binder | binding result
43 | B3 | binds

molecular target: T4, mouse Fzd-2 (mouse, UniProt Q9JIP6 29-570); test: rhodamine-labeled UM206 on kidney and small intestine sections
T4 construct: whole, on cells; also called mouse frizzled-2
T4 sequence (Q9JIP6 29-570): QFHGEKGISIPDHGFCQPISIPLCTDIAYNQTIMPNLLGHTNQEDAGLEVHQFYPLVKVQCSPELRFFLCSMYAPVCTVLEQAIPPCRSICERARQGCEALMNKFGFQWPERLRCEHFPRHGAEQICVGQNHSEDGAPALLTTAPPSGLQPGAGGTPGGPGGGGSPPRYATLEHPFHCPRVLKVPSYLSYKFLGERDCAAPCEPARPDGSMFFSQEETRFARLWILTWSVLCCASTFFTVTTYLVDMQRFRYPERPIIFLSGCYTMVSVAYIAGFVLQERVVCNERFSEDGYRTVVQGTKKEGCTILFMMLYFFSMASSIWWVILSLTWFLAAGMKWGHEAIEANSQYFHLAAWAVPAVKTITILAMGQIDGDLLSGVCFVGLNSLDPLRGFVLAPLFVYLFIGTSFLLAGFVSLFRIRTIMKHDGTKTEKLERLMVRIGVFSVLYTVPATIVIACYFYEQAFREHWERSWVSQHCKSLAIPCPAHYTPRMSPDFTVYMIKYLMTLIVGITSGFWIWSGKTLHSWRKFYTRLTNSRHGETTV

Row | Binder | binding result
44 | B3 | binds

molecular target: T1, rat frizzled-2 receptor; test: cell-based or functional assay; remark: another data set of the same source

Row | Binder | IC50, inhibition of Wnt3a (10^-9 M)-induced luciferase activity, two-binding-state fit, high affinity site [nM] | IC50, inhibition of Wnt3a-induced luciferase activity [nM] | fold increase of luciferase activity (TOPflash reporter, HEK cells) [fold] | EC50, luciferase activity (amount of agonist that yields 50% of maximum activity) [nM] | IC50, inhibition of Wnt3a (10^-9 M)-induced luciferase activity, single binding site fit [nM]
45 | B1 | 0.0169 | 0.1 | – | – | –
46 | B4 | – | – | 12 | – | –
47 | Ac-CNKTSEGMDGCEL-NH2 (disulfide 1-11) [Peptide UM206(S-S)] | – | – | – | 20 | –
48 | Ac-GIKECQYQFRHRRWNCSTVD-NH2 (cysteine pairing not given here) [Peptide UM207] | – | – | – | – | 15.2

molecular target: T2, rat frizzled-1 receptor; test: cell-based or functional assay; remark: another data set of the same source

Row | Binder | IC50, inhibition of Wnt3a (10^-9 M)-induced luciferase activity, two-binding-state fit, major binding site [nM] | IC50, inhibition of Wnt3a-induced luciferase activity [nM] | EC50, luciferase activity (amount of agonist that yields 50% of maximum activity) [nM] | IC50, inhibition of Wnt3a (10^-9 M)-induced luciferase activity, single binding site fit [nM]
49 | B1 | 2.1 | 1 | – | –
50 | Ac-CNKTSEGMDGCEL-NH2 (disulfide 1-11) [Peptide UM206(S-S)] | – | – | 10 | –
51 | Ac-GIKECQYQFRHRRWNCSTVD-NH2 (cysteine pairing not given here) [Peptide UM207] | – | – | – | 40

molecular target: T1, rat frizzled-2 receptor; test: inferred by the filing from inhibition curves of Wnt3a-induced luciferase activity in transfected HEK293-superTOPflash cells
Procedure: To determine the inhibitory constant of UM206-8, HEK293-superTOPflash cells were transfected with either rFzd-1 or -2 and incubated with Wnt3a (10⁻⁹M) in the presence of increasing concentrations of either of the peptides (FIG. 15). For UM206, a biphasic inhibition curve was observed that was best fitted with a two-binding-state model.

Row | Binder | fold higher affinity than to rFzd-1 [fold]
52 | B1 | ~100
